According to paper PMC314469, “Protein Interaction Networks by Proteome Peptide Scanning” (PLoS Biology, 2004):

T1: Boi2 SH3 (BOI2_YEAST), P39969
T1 chain: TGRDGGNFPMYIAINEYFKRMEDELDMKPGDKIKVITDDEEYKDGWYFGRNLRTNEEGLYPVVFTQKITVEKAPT

T2: Rvs167 SH3 (RV167_YEAST), P39743
T2 chain: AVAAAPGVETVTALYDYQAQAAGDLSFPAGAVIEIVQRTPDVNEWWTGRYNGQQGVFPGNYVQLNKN

T3: Yhr016c SH3 (YSC84_YEAST), P32793
T3 chain: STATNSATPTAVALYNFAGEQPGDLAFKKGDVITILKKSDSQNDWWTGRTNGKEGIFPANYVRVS

T4: Yfr024 SH3 (LSB3_YEAST), P43603
T4 chain: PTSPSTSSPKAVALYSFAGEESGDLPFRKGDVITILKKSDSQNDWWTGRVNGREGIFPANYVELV

T5: Boi1 SH3 (BOI1_YEAST), P38041
T5 chain: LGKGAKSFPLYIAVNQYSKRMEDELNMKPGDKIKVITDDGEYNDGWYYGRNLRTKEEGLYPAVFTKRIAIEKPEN


Biological target: T1, Boi2 SH3 (BOI2_YEAST), P39969
Assay: SPOT array

Row | normalised SPOT signal, Boehringer light units (BLU); mean over the file's lines of this peptide | Binder
1 | 48.3 | LVQPNVPEKHNMST [YHL002W 144-157]
2 | 234 | LRRPIFPGRDYRHQ [YBL016W 218-231]
3 | 101 | MALPRTPLKTSTEE [YCL009C 276-289]
4 | 41.5 | LTLPFGPVKSIWLS [YGR227W 189-202]
5 | 25.9 | LTSPKNPIKSVTKF [YDR172W 569-582]
6 | 33.7 | LTSPFEPPKPKTKH [YJR064W 272-285]
7 | 63 | LSKPSKPLKEIRFD [YAR003W 101-114]
8 | 322 | LRSPNTPRRLRKTL [YDR545W 312-325]
9 | 60.6 | LYKPGMPPRPHFIT [YNL045W 494-507]
10 | 74.6 | LVTPEEPAKNKSER [YDL129W 13-26]
11 | 37.9 | LSTPSAPAKINNYS [YDR109C 605-618]
12 | 51.5 | LWQPVDPSREDLVI [YLR301W 128-141]
13 | 22 | LSSPSLPPKVNATN [YEL042W 325-338]
14 | 37.5 | LVIPSTPSKKSKYS [YOR315W 23-36]
15 | 25.2 | LWIPDDPSKARFLS [YJR152W 267-280]
16 | 162 | MKAPKMPDKHRDNY [YDL031W 923-936]
17 | 55.1 | MEYPFKPPKMQFDT [YDR177W 60-73]
18 | 52 | LVQPVVPDKVFSFR [YER036C 368-381]
19 | 40.6 | MAAPPVPPKQSQED [YPL084W 790-803]
20 | 44.9 | LSLPRLPNKHHWPL [YAR068W 116-129]
21 | 49 | LRSPQNPNRMTAVI [YPL115C 235-248]
22 | 43.1 | LSSPNVPGKPQVAY [YKL216W 131-144]

Biological target: T2, Rvs167 SH3 (RV167_YEAST), P39743
Assay: SPOT array

Row | normalised SPOT signal, Boehringer light units (BLU); mean over the file's lines of this peptide | Binder
23 | 44.1 | LVQPNVPEKHNMST [YHL002W 144-157]
24 | 947 | LRRPIFPGRDYRHQ [YBL016W 218-231]
25 | 338 | MALPRTPLKTSTEE [YCL009C 276-289]
26 | 17.2 | LTLPFGPVKSIWLS [YGR227W 189-202]
27 | 96.1 | LTSPKNPIKSVTKF [YDR172W 569-582]
28 | 8.1 | LTSPFEPPKPKTKH [YJR064W 272-285]
29 | 82.7 | LSKPSKPLKEIRFD [YAR003W 101-114]
30 | 2540 | LRSPNTPRRLRKTL [YDR545W 312-325]
31 | 34.7 | LYKPGMPPRPHFIT [YNL045W 494-507]
32 | 78.8 | LVTPEEPAKNKSER [YDL129W 13-26]
33 | 30.6 | LSTPSAPAKINNYS [YDR109C 605-618]
34 | 0.8 | LWQPVDPSREDLVI [YLR301W 128-141]
35 | 34.7 | LSSPSLPPKVNATN [YEL042W 325-338]
36 | 32.2 | LVIPSTPSKKSKYS [YOR315W 23-36]
37 | 36.6 | LWIPDDPSKARFLS [YJR152W 267-280]
38 | 331 | MKAPKMPDKHRDNY [YDL031W 923-936]
39 | 68.7 | MEYPFKPPKMQFDT [YDR177W 60-73]
40 | 63.5 | LVQPVVPDKVFSFR [YER036C 368-381]
41 | 52.4 | MAAPPVPPKQSQED [YPL084W 790-803]
42 | 252 | LSLPRLPNKHHWPL [YAR068W 116-129]
43 | 20.7 | LRSPQNPNRMTAVI [YPL115C 235-248]
44 | 1.5 | LSSPNVPGKPQVAY [YKL216W 131-144]

Biological target: T3, Yhr016c SH3 (YSC84_YEAST), P32793
Assay: SPOT array

Row | normalised SPOT signal, Boehringer light units (BLU); mean over the file's lines of this peptide | Binder
45 | 107 | LVQPNVPEKHNMST [YHL002W 144-157]
46 | 1090 | LRRPIFPGRDYRHQ [YBL016W 218-231]
47 | 280 | MALPRTPLKTSTEE [YCL009C 276-289]
48 | 297 | LTLPFGPVKSIWLS [YGR227W 189-202]
49 | 40.3 | LTSPKNPIKSVTKF [YDR172W 569-582]
50 | 149 | LTSPFEPPKPKTKH [YJR064W 272-285]
51 | 227 | LSKPSKPLKEIRFD [YAR003W 101-114]
52 | 3240 | LRSPNTPRRLRKTL [YDR545W 312-325]
53 | 326 | LYKPGMPPRPHFIT [YNL045W 494-507]
54 | 69.6 | LVTPEEPAKNKSER [YDL129W 13-26]
55 | 144 | LSTPSAPAKINNYS [YDR109C 605-618]
56 | 139 | LWQPVDPSREDLVI [YLR301W 128-141]
57 | 92.2 | LSSPSLPPKVNATN [YEL042W 325-338]
58 | 95.7 | LVIPSTPSKKSKYS [YOR315W 23-36]
59 | 200 | LWIPDDPSKARFLS [YJR152W 267-280]
60 | 399 | MKAPKMPDKHRDNY [YDL031W 923-936]
61 | 178 | MEYPFKPPKMQFDT [YDR177W 60-73]
62 | 370 | LVQPVVPDKVFSFR [YER036C 368-381]
63 | 279 | MAAPPVPPKQSQED [YPL084W 790-803]
64 | 2000 | LSLPRLPNKHHWPL [YAR068W 116-129]
65 | 155 | LRSPQNPNRMTAVI [YPL115C 235-248]
66 | 77.3 | LSSPNVPGKPQVAY [YKL216W 131-144]

Biological target: T4, Yfr024 SH3 (LSB3_YEAST), P43603
Assay: SPOT array

Row | normalised SPOT signal, Boehringer light units (BLU); mean over the file's lines of this peptide | Binder
67 | 94.6 | LVQPNVPEKHNMST [YHL002W 144-157]
68 | 8010 | LRRPIFPGRDYRHQ [YBL016W 218-231]
69 | 1130 | MALPRTPLKTSTEE [YCL009C 276-289]
70 | 36.6 | LTLPFGPVKSIWLS [YGR227W 189-202]
71 | 227 | LTSPKNPIKSVTKF [YDR172W 569-582]
72 | 82.2 | LTSPFEPPKPKTKH [YJR064W 272-285]
73 | 586 | LSKPSKPLKEIRFD [YAR003W 101-114]
74 | 21100 | LRSPNTPRRLRKTL [YDR545W 312-325]
75 | 899 | LYKPGMPPRPHFIT [YNL045W 494-507]
76 | 49.1 | LVTPEEPAKNKSER [YDL129W 13-26]
77 | 174 | LSTPSAPAKINNYS [YDR109C 605-618]
78 | 179 | LWQPVDPSREDLVI [YLR301W 128-141]
79 | 3210 | LSSPSLPPKVNATN [YEL042W 325-338]
80 | 627 | LVIPSTPSKKSKYS [YOR315W 23-36]
81 | 561 | LWIPDDPSKARFLS [YJR152W 267-280]
82 | 1760 | MKAPKMPDKHRDNY [YDL031W 923-936]
83 | 483 | MEYPFKPPKMQFDT [YDR177W 60-73]
84 | 311 | LVQPVVPDKVFSFR [YER036C 368-381]
85 | 4570 | MAAPPVPPKQSQED [YPL084W 790-803]
86 | 27100 | LSLPRLPNKHHWPL [YAR068W 116-129]
87 | 1210 | LRSPQNPNRMTAVI [YPL115C 235-248]
88 | 201 | LSSPNVPGKPQVAY [YKL216W 131-144]

Biological target: T5, Boi1 SH3 (BOI1_YEAST), P38041
Assay: SPOT array

Row | normalised SPOT signal, Boehringer light units (BLU); mean over the file's lines of this peptide | Binder
89 | 52.4 | LVQPNVPEKHNMST [YHL002W 144-157]
90 | 825 | LRRPIFPGRDYRHQ [YBL016W 218-231]
91 | 100 | MALPRTPLKTSTEE [YCL009C 276-289]
92 | 5.9 | LTLPFGPVKSIWLS [YGR227W 189-202]
93 | 547 | LTSPKNPIKSVTKF [YDR172W 569-582]
94 | 188 | LTSPFEPPKPKTKH [YJR064W 272-285]
95 | 233 | LSKPSKPLKEIRFD [YAR003W 101-114]
96 | 236 | LRSPNTPRRLRKTL [YDR545W 312-325]
97 | 25.6 | LYKPGMPPRPHFIT [YNL045W 494-507]
98 | 126 | LVTPEEPAKNKSER [YDL129W 13-26]
99 | 18.3 | LSTPSAPAKINNYS [YDR109C 605-618]
100 | 49.2 | LWQPVDPSREDLVI [YLR301W 128-141]
101 | 113 | LSSPSLPPKVNATN [YEL042W 325-338]
102 | 94.8 | LVIPSTPSKKSKYS [YOR315W 23-36]
103 | 63.1 | LWIPDDPSKARFLS [YJR152W 267-280]
104 | 163 | MKAPKMPDKHRDNY [YDL031W 923-936]
105 | 56.3 | MEYPFKPPKMQFDT [YDR177W 60-73]
106 | 124 | LVQPVVPDKVFSFR [YER036C 368-381]
107 | 84.2 | MAAPPVPPKQSQED [YPL084W 790-803]
108 | 197 | LSLPRLPNKHHWPL [YAR068W 116-129]
109 | 55.6 | LRSPQNPNRMTAVI [YPL115C 235-248]
110 | 67.9 | LSSPNVPGKPQVAY [YKL216W 131-144]
